Data as given in publication PMC7851562 (2020).

T1: coxsackievirus and adenovirus receptor (CAR), as used in SPR (UniProt P78310 20-365)
T1 chain: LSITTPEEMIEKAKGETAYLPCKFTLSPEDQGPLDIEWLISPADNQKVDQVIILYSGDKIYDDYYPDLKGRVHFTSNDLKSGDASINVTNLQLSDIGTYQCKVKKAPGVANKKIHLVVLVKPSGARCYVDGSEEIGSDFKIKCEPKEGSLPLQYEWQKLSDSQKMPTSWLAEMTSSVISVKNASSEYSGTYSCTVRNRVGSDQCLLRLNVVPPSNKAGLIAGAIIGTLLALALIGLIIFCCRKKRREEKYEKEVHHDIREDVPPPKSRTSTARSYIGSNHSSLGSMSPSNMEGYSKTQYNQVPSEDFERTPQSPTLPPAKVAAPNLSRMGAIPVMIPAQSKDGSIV


Tests used:
[1] = molecular target: coxsackievirus and adenovirus receptor (CAR), as used in SPR (UniProt P78310); test: SPR; recombinant fiber knob protein over receptor; about 5,000 RU of DSG2-Fc amine coupled to a CM5 chip at 10 μl/min; in triplicate; CAR and CD46 surfaces as previously described (ref 36)
[2] = molecular target: coxsackievirus and adenovirus receptor (CAR) on CHO-CAR cells (UniProt P78310)
[3] = molecular target: T1, coxsackievirus and adenovirus receptor …; test: SPR

Molecule	Kd [1] [nM]	inhibition of HAdV-C5 transduction (luciferase) of CHO-CAR cells preincubated with recombinant HAdV-D49K [2] [%]	koff [3] [s⁻¹]
human adenovirus type 49 fiber knob protein (domain or fragment)	190	50	–
human adenovirus type 49 fiber knob protein (domain or fragment) MRGSHHHHHHGSKKGDLVAWNKENDRRTLWTTPDPSPNCKVSEEKDSKLTLVLTKCGSQILASVSLLVVKGKFANINNKTNPGEDYKKFSVKLLFDANGKLLTGSSLDGNYWNYKNKDSVIGSPYENAVPFMPNSTAYPKIINNGTANPEDKKSAAKKTIVTNVYLGGDAAKPVATTISFNKETESNCVYSITFDFAWNKTYKNVPFDSSSLTFSYIAQDAEDKNE	–	–	0.0012
